Literature values in article PMC12609503.
pKd: −log10 of the molar value.

Columns and labels:
[1] = molecular target: GnRH receptor (LN-CaP cells) (Homo sapiens) (UniProt P30968); test: cell binding assay
[2] = molecular target: GnRH receptor (pituitary membrane) (Rattus norvegicus) (UniProt P30969); test: radioligand saturation binding
Sequence of UniProt P30969 (P30969 whole entry): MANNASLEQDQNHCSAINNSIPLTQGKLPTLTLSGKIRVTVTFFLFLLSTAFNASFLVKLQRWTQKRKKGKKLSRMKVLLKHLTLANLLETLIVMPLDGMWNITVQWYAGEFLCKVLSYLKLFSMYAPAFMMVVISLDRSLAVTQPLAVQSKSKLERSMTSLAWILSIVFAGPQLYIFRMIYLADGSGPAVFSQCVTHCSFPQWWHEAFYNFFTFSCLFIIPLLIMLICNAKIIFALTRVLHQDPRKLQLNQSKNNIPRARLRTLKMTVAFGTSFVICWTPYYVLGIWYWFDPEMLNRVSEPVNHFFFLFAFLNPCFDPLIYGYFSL

Sequence of UniProt P30968 (P30968 whole entry): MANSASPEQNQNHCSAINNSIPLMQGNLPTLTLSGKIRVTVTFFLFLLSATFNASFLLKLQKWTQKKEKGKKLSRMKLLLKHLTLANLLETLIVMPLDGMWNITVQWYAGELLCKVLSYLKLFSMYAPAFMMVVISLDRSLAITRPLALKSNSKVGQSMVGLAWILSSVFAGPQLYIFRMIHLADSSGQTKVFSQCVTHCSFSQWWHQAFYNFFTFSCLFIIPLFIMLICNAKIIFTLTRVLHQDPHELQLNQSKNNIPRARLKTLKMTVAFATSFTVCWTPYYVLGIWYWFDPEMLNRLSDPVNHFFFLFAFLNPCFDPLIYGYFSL

Row | pKd [2] | Substance | pKd [1]
1 | – | 99mTc-HYNIC-Ahx-DLys6-GnRH (from UniProt P01148) | 7.38
2 | – | 99mTc-HYNIC-GABA-DLys6-GnRH (from UniProt P01148) | 7.05
3 | 9.36 | 125I-LHRH (from UniProt P01148) | –
